Reference: the DeepSol protein solubility set

Experiment: soluble on expression in E. coli; label from the status in PepcDB or PDB records

Sequence | soluble on expression in E. coli
MTIKKSQIEKWIAAQKRHRLSDTHVQMARELGLNPDKLGKIDNHRQEPWKAPLPEFIEEIFYKRFKKERPDVVKPLKQILKEQEIKTKTKKKEKEIRRKEREQEQINNGTDEVLTFQSPTPITE | not soluble
METLSDVFATFSQRGDTTAFVHRTGVRRYVFTYLDLHALSLRMNRWLADQGVGEGDRVVLWGPNSPWWAVAFWGIVTRGAVAVPVDFMSGAERAEIIAGLTDAKLVIQSRDKLDRLTGRPSVLLEELGFLLEAVEPLATTHRPAPDDMAELIYTSGTTGNPKGVILTHRNLVANILQVNRHIPVVTPDFSFLSLLPLSHMFEQMGGFFTPLYRGAAIVYIRTLKPSAIMEALGEEDIYAIIAVPRLLQLLKGSVERELEAKGLGSIFRWLLKVGERMSRGGRSVLFRPIQRKFGRNFALFVSGGAPLDPEVFRFWNGLGFRVVEGYGLTECSPVLTANTMERQVMGSVGTPLDGVELRLEEGEILARGDNIFPGYFRNEEATRGAFVDGWFRTGDLGELDPDGWLRIKGRSKELIVTGAGVNVYPDEIEAILNRTQGVREGCVIGLDRGKGEEVHGVLILDGSGRPTEEIVNEVNAKFDELHRITSFSVWPEAEFPKTTTLKIRKFQVKERIEQGGGALGDGRGADRLTALVATITGSPLEQVTEGALLVNDLGLTSIARLELVNALEMEFRLDLEDSVIGPQTRVADLREIVSRREKVHIREHFRIWAMGGVALAVRRLLDTVLHGPLLRAFVTLKSLGIENLEAADGPVMFVSNHLSYLDQPAIMCVLPDAWRYNTATAAWEEFFFRNFKNLPQRLWKRFTYEYASVAFTVFPLPQSRGFRGALHFMGTLADQGMNILLFPEGERSRDGRLLPFQQGLGVMIRELGVPVVPVRIRGLEKVLPRGASWPQKGEVSITFGKPIHFRGESPTEIVDRARRAVEDLLEHHHHHH | not soluble
MRIEGELVKAKFVKRLNRFVALVEVDGVQEFAHVPNTGRLKELLVDGAAVMVRKYDKTDRKTRFGLILVRKNGIWVSIDSANAPNRIMYEALVQGKFDKFRDYSEIRREVTVLNSRFDFGLFSEGKEYYIEVKGVTLVENRQGFFPDAPTQRGTRHLEELTKIRQNGKEAGVAFIVQREDADVVRPNDRTDKNFANALRIAAEAGVDLMAYVCKVDAEQRRMDIVREIPVIIK | soluble
MSLSENIAAYVGLDVHKETLAVAIAAPERLGEVRYYGTINNEAQAVRRLFQKLQGLYGNILSCYEAGPCGFGLYHQLTAMNIKCQVIAPSRIPKSPTDRIKNDHRDAISLARLLRAGELTPVWIPDLTHEAMRDLIRARAAAKRDSRVARQRILSMLLRTDKHYAGKHWTGKHRTWLANQSFSQPSQQIAFQHYCQSLEQIEDRILQLDQEISRLLPEWSLCNLVCQLQALKGVGQLIAITLVAELGDFSRFSNPKQLMAFLGLVPGEYSSGNSIRPRGITKVGNSELRRLLYEAAWSYRTPAKVGAWLIYYRPDSVTQYSKDIAWKAQQRLCSRYRSLTAKGKKSQVAITAVARELTGFMWDIALAAQSSFSQQKQNEGHHHHHH | soluble
MSDPKPTRSQGDLAEMLEMLLDKGVVINADIAVSVGDTELLGIQLRAAVASFETAAQYGLEFPTGTDMKRVETAAGVSSDASDANSETQPETEPARETTDEHSAVSSPSSREE | not soluble
MGSDKIHHHHHHMFVEACGRLVLIRKIYGLVKVFMVKKTIRYMRISLMLTNDAIFTTRLQKGGALLDDMRQLVCQWTEAVAKPESQAGEILHKATRSRVADTYRRAFLPRFLKGSPQDAWKLARALEEAHPSIEIIRPFYYWITARAEPILYAYVTEELVEKAKTSDRAVRTEETASWINNTLRSCGRVWSPTVQLKVARGILAALRDFAILEGAVNKRLVHGHLPIETFCLIAFLLNLMGIGARELVEHSDWKLFLLAGPEVERLFFEAHQHGWLHYQAAGRVHRIEFPTNDFKDYIRVIFGTES | not soluble
MSLSKIKEIRTKVYQWNGKTVPPQNNFCTNASDLLYEKSDAMGSFRFHEWLICEVETNDGHIGIGNAALAPQLVKNTIDTYLKPLVVGEDPFDYAYIWEKMYRKTLNWGRRGLGMVAISAIDIAIWDVLGKITNKPVFKLLGGRTKEKIPVYASKLYAQPLKQLQEEAEKYKNEGFKMFKSRMGWGPKDGSEGMKKNLQLLEAVREVIGEDTDLMVDCYMGWNLDYTKRMLPKMAKFNLRWLEEPVHADDIHGYAELNNMNIIPISGGEHEFNLFGFKQLLELNAVSYIQYDNNRVGGFTVAQKINALAEAYQIPVVPHAGQMHNYHLTMSNFNCPISEFFPVHEVEVGNELFYYIFEGDPAPVDGMIDLDDNTPGLGLKVTDKYKSDFKIIEEGHHHHHH | soluble
MSYLDFNSMLNNLYTKFGDSSFENVFYLPEPKISKKSTRIDWININVFLKSVNRSIEHFINYLKNDRKISTTYQNNILIIQGKYRKEDINKMMLEYVNKFCKCPICSSYDTLLVKDGTIRKEKIICSKCKSTTFCS | not soluble
YWFRSHKLERQLAEFQMQNELQYRYYAELEQKYRESRKIMHDMKNHLQAVEHLYQAKDGQEQGGAYVKDLYHMLNLLGEKYYSSNRMLNIICNDKLSLARHPAVAISVEIGDVDFSDLRDIDITTIFANLLDNALEAVEAFGEGAYLNLKIQEVHHFRVISIVNASRPGMKKEGHMGVGLENVRRTVEAYQGTMQCEIVGEEYRVSVMLPGKEDS | not soluble
MGSDKIHHHHHHMKFKIHSDITYQVMSPTTFIFNVHALRTESQHILDESLIVTPPIEIEEFSYNSGTSRFVRLKATENTTFSMSYTATVDTQYKVIDQRQELETVPVVDLDGDIIPFLFPSRYCQSDKLQKLAYKEFGKIENVYSKVLAITDWIYNNVEYISGSTNSQTSAFDTITERAGVCRDFAHLGIALCRALSIPARYFTGYAFKLNPPDFHACFEAYIGGNWIIFDATRLVPLNGLVKIATGRDAADAAVASIFGNASSTNMHVECASLDTDFTPFWYDKNSLKGLSFQ | not soluble
MGHHHHHHMRSYEKSKTAFKEAQKLMPGGVNSPVRAFKSVDMDPIFMERGKGSKIFDIDGNEYIDYVLSWGPLILGHTNDRVVESLKKVAEYGTSFGAPTEVENELAKLVIDRVPSVEIVRMVSSGTEATMSALRLARGYTGRNKILKFEGCYHGHGDSLLIKAGSGVATLGLPDSPGVPEGIAKNTITVPYNDLESVKLAFQQFGEDIAGVIVEPVAGNMGVVPPQEGFLQGLRDITEQYGSLLIFDEVMTGFRVDYNCAQGYFGVTPDLTCLGKVIGGGLPVGAYGGKAEIMEQIAPSGPIYQAGTLSGNPLAMTAGLETLKQLTPDSYKNFIKKGDRLEEGISKAAEAHGIPHTFNRAGSMIGFFFTNEPVINYETAKASDLKLFASYYKGMANEGVFLPPSQFEGLFLSTAHTDEDIENTIQAAEKVFAEISRR | soluble
EKMTRDEIAYMLTNSEETLDADEIEMLQGVFSLDELMAREVMVPRTDAFMVDIQDDSQAIIQSILKQNYSRIPVYDGDKDNVIGIIHTKSLLKAGFVDGFDNIVWKRILQDPLFVPETIFVDDLLKELRNTQRQMAILLDEYGGMAGLVTLEDLLEEIVGEID | not soluble
MFEKEKEGLIEVQNVYEIAPEDGTIIGMATEEEMEIAAELELQYYAHSRLLEANIQLDGSSYKELLQEFQEYERKSMSFWRAIHKRLAVPWAWVLRIDVANGPIYVSNGSSYYEEIDDEEDYE | not soluble
MAHHHHHHMSLNAAAAADERSRKEMDRFQVERMAGQGTFGTVQLGKEKSTGMSVAIKKVIQDPRFRNRELQIMQDLAVLHHPNIVQLQSYFYTLGERDRRDIYLNVVMEYVPDTLHRCCRNYYRRQVAPPPILIKVFLFQLIRSIGCLHLPSVNVCHRDIKPHNVLVNEADGTLKLCDFGSAKKLSPSEPNVAYICSRYYRAPELIFGNQHYTTAVDIWSVGCIFAEMMLGEPIFRGDNSAGQLHEIVRVLGCPSREVLRKLNPSHTDVDLYNSKGIPWSNVFSDHSLKDAKEAYDLLSALLQYLPEERMKPYEALCHPYFDELHDPATKLPNNKDLPEDLFRFLPNEIEVMSEAQKAKLVRK | soluble
MRDVTKGSFNDSPNNGFFEIQYKEDGVYLTVHPPIGKGKAVEVNDVISRLTQKKIVYDKEMVELAVQRASNVPVKIGEPQEELKLDATIDVNISPDKMKATMVIRPPDGGRMLTKDEMMEILKNSGVRYGINESMLENVSKYPVYNEIIVIAEGTPPINGQNGKVEFHFDLKKERKPTILEDGRVDFRELNLIESVKKGQVLCTLVPPLPGTPGRTVEDIEVPALDGKPAVLPKGKNVEISEDGQSLIAGIDGQVNYIDGKVSVFANYEVPADVDNSTGNISFVGNVIIRGNVLSGFTVEAGGSVEVMGVVEAAVIKADGDIILRRGMQGLGRGILKSGGDIIAKYIENSIIEAKGDIKAEAIMHSNVKCGNKLELSGKKGLLIGGKCKVGKEIVAKVIGSYLATHTDIEVGVDPQIKERYKELRDEIRKIEEDLVKAEQAITILKKLEAAGKLTPEKQELMARSIRTKIYYSNRLGELKEELIITEQRLQKEADGKIRVFDHIYPGTKVTIGTSMMYVKEDLQYCTLYRDGADIRVGPIDK | soluble
MKSQFLLSVKEHMLTRYYANKTIESYLFWIKRFIVFHQFAHPSKLSEDDVIRFLSHLAIDEKVAVKTQALALNAISFLYRDFFKTPLSLDMRFQKSLTEKKLPVVLTRDEVRRFV | not soluble
MSLNALYNSLKQRLESGEWLAGQRMPSIRKLASTSEASYHDAVTAYARLVSEGLLSASPGRGYFVNSGASQAVSPREPECMSADPLFRLLQAGPQYTKLGGGWLPPAWRDTELLAKAIRRTARLEQSSLAEYGDISGYLPMRKQLCVHMKRLTRIDIRPSQVLSTLGATQGLDLVARLLIKAGDHVFVDEPGNGNLIRLIQLAGGHVVGVRRTQDGPDIAEMESYLAKHTVKAFFCNSTFHNPTGSNISPHNAFKVLRLAVEHEFFVVEDDVYGDFSPTVRQTFAELDNLDRVIYIGSFSKCLSASLRVGYIACSQELIEPLTRLKLLTCVAVPAFCERFVNTILADGTYARHMQDVQQRLISQQVQTQRSLLARGWKFDIAPQGGMFIWAYHPDITDLQPFMTKLEQHRILLMPGSAFSVTRDYQRFARINCTHFSEAVEAHFSV | not soluble
MSLSELSVLSAETAISFHEMDLEILKESQKALREEAGGKEEVEETVENPNPIVFIAVDDQNLPNGEEEDSFIFEKLQFRVKQVMENGTRRVYLSVQATTPAEWQLLVQLRIKTGCQSNILNVVDKDVYKFDSFSYPLNVEIQNSDVKFLKFEMRVLNLMYLDLPTFEEGDEVIEFDDGSRIRVHSNILSLLSDYLGKSEKEYASRTDCPAIKATCSEKEAFLELLYQAYPTRRPIFASFRRLTAGAVGYKCDNLIYQLSKHLIDYNYRPMTFLQRFQAAIENRLEPAISELAFRAALDGTWNQMIQSGFEPENFCGRQVYTKIVCPAILLARNAKPDATTLKKPENNLKFIELEEGDTTKSAILFRGTIFYINSGILAAHGKEMLCIGQNGEYIARYTAEFHRECARGDLIPGEVLVQLLTYMHPMGEVPHPDMIRACIVFAFDHGWNIVKENLENEFEPPITPDEYMSQLMFGDKFDLKNLLRVNIQRAESSCRELAEVLERHGKLKILKDRTHEGIMDRMCSGWGLNPMVNRLSTRFPTTFHHRTVNLQRGKAVVVGEGRAVDTLNSLASDHAFGEPTELIVVD | not soluble
MKDKKTISILGCGWLGLPLAEAFIQSGFRVKGSTTREERLSVIEAAGAEGYVLKADGGAWTGERLNDFLRCDILLIAIPPGTKRNANSTHAVEIGQLMDHIKKYSIAIKQLIYISSTSVYKNINSVVIESDTAIPSNIGNQILFQAEKHVHESVIERKLILRLGGLTGYDRMLGRFFAGKQELAGGNEPVNLVHRDDVVACILFLLKNGIGEQVFNICSPQHPSRKEFYTRLCDRFNLPEPH | not soluble
